Reference: patent US20020037288A1

Legend:
[1] = target: HM1.24 antigen protein (human); assay: FCM, indirect method, 25 ug/ml antibody; JM cells (T cell line)
[2] = target: HM1.24 antigen protein (human); assay: FCM, indirect method, 25 ug/ml antibody; CESS cells (B cell line)
[3] = target: HM1.24 antigen protein (human); assay: FCM, indirect method, 25 ug/ml antibody; EB-3 cells (B cell line)
[4] = target: HM1.24 antigen protein (human); assay: FCM, indirect method, 25 ug/ml antibody; KT-3 cells (T cell line)
[5] = target: HM1.24 antigen protein (human); assay: FCM, indirect method, 25 ug/ml antibody; MT-1 cells (T cell line)
[6] = target: HM1.24 antigen protein (human); assay: FCM, indirect method, 25 ug/ml antibody; MC116 cells (B cell line)
[7] = target: HM1.24 antigen protein (human); assay: FCM, indirect method, 25 ug/ml antibody; Jijoye cells (B cell line)
[8] = target: HM1.24 antigen protein (human); assay: FCM, indirect method, 25 ug/ml antibody; Jurkat cells (T cell line)
[9] = target: HM1.24 antigen protein (human); assay: FCM, indirect method, 25 ug/ml antibody; MOLT-4 cells (T cell line)
[10] = target: HM1.24 antigen protein (human); assay: FCM, indirect method, 25 ug/ml antibody; CCRF-SB cells (B cell line)
[11] = target: HM1.24 antigen protein (human); assay: FCM, indirect method, 25 ug/ml antibody; HPB-ALL cells (T cell line)
[12] = target: HM1.24 antigen protein (human); assay: FCM, indirect method, 25 ug/ml antibody; HPB-MLT cells (T cell line)
[13] = target: HM1.24 antigen protein (human); assay: FCM, indirect method, 25 ug/ml antibody; SKW 6.4 cells (B cell line)
[14] = target: HM1.24 antigen protein (human); assay: FCM, indirect method, 25 ug/ml antibody; CCRF-CEM cells (T cell line)
[15] = target: HM1.24 antigen protein (human); assay: FCM, indirect method, 25 ug/ml antibody; RPMI 6410 cells (B cell line)
[16] = target: HM1.24 antigen protein (human); assay: FCM, indirect method, 25 ug/ml antibody; RPMI 8402 cells (T cell line)
[17] = target: HM1.24 antigen protein (human); assay: FCM, indirect method, 25 ug/ml antibody; CCRF-HSB-2 cells (T cell line)

**Q.** For mouse anti-HM1.24 monoclonal antibody, which percentage of HM1.24 antigen-positive cells (Expression rate) [1] is on record?
**A.** 99.6%

**Q.** And the percentage of HM1.24 antigen-positive cells (Expression rate) [2]?
**A.** 94.5%

**Q.** What about the percentage of HM1.24 antigen-positive cells (Expression rate) [3] of the same substance?
**A.** 88.3%

**Q.** What about the percentage of HM1.24 antigen-positive cells (Expression rate) [4] of the same substance?
**A.** 96%

**Q.** What about the percentage of HM1.24 antigen-positive cells (Expression rate) [5] of the same substance?
**A.** 95.9%

**Q.** And the percentage of HM1.24 antigen-positive cells (Expression rate) [6]?
**A.** 65%

**Q.** What about the percentage of HM1.24 antigen-positive cells (Expression rate) [7] of the same substance?
**A.** 92.3%

**Q.** What about the percentage of HM1.24 antigen-positive cells (Expression rate) [8] of the same substance?
**A.** 70.9%

**Q.** What about the percentage of HM1.24 antigen-positive cells (Expression rate) [9] of the same substance?
**A.** 84.1%

**Q.** And the percentage of HM1.24 antigen-positive cells (Expression rate) [10]?
**A.** 98.4%

**Q.** And the percentage of HM1.24 antigen-positive cells (Expression rate) [11]?
**A.** 63.8%

**Q.** What about the percentage of HM1.24 antigen-positive cells (Expression rate) [12] of the same substance?
**A.** 94.6%

**Q.** What about the percentage of HM1.24 antigen-positive cells (Expression rate) [13] of the same substance?
**A.** 92.8%

**Q.** And the percentage of HM1.24 antigen-positive cells (Expression rate) [14]?
**A.** 97.8%

**Q.** And the percentage of HM1.24 antigen-positive cells (Expression rate) [15]?
**A.** 94.5%

**Q.** What about the percentage of HM1.24 antigen-positive cells (Expression rate) [16] of the same substance?
**A.** 94%

**Q.** What about the percentage of HM1.24 antigen-positive cells (Expression rate) [17] of the same substance?
**A.** 100%
